Data on 1 substance can be found in publication PMC12148371 (iScience, 2025).

The target in the test is EBOV-GP-RBD without the glycan cap and MLD, displayed on the cell surface (EGPdcm, wild type) (Zaire ebolavirus). The experiment in a line: flow cytometry on cells.

Substance “NPC1-His (from UniProt O15118 23-1278) (receptor)” came in with a percent NPC1 binding (positive cells) of 94.7% and a percent NPC1 binding (positive cells), without competitor of 76.4%.
